Source: patent US20120201746A1 (AbbVie / Abbott, published 2012)
Numbering of substitutions follows the chain as printed. In names and notes the source's numbering stands. Read-outs that look alike come from different tables or passages of the source. Blank lines part the entries; values can stand above or below the binder they belong to.

Legend:
biotin-labeled c-Met = biotin-labeled c-Met (UniProt P08581 25-932, limits assumed, biotin-labeled); assay: ELISA, biotin-labeled c-Met detected with streptavidin-HRP; half-Ig (cMet-Mut6)
Description: c-Met binding ELISA was performed to characterize the antigen binding property of anti-c-Met half-Igs. 96-well ELISA plates were coated with 100 μl/well 5 μg/ml anti-mouse IgG Fc in PBS at 4° C. overnight. After 3 washes with PBS/0.05% Tween®20, the plates were blocked with 5% milk in PBS for 1 hour at room temperature. After another 3 washes with PBS/0.05% Tween®20, 100 μl c-Met antibody or half-Ig was added to each well followed by an incubation of 1 hour at room temperature. Binding biotin-labeled c-Met was detected by Streptavidin-horseradish peroxidase (KPL, Gaithersburg, Md.) and tetramethylbenzidine (Thermo Scientific, Rockford, Ill.). Final absorbances were acquired at 450 nm after stopping the reactions with 2 mol/L H₂SO₄.

[1] = target: T1, Neonatal Fc receptor (FcRn) on CHO-FcRnGPI cells; assay: flow cytometry on CHO-FcRnGPI cells, pH 6.4
T1 construct: whole, on cells; also called FcRn receptor
Description: (§1) CHO-FcRnGPI cells (Stable FcRn receptor expressor) and CHO-pBudl l cells (non-FcRn expressor) were aliquotted into 96-well plates at 1×10⁵ cells/well. Cells were resuspended in 150 μl FACS buffer. Anti-c-Met Ab and half-Ig binding proteins were diluted to 100 μg/ml in FACS buffer pH 6.4 and pH 7.4. 30 μl of diluted antibody or half-Ig binding protein was added to each well and incubated on ice for 1 hour. Following 2 washes with FACS buffer, 50 μl of secondary antibody R-phycoerythrin-conjugated AfiniPure F(ab′)₂ Fragment goat anti-human IgG (Jackson ImmunoResearch®, West Grove, Pa.) diluted in FACS buffer pH 6.4 or pH7.4 was added. The mixture was incubated for 30 min on ice. The cells were resuspended in 100 μl PBS with 1% FBS (Invitrogen®, Carlsbad, Calif.) and 2 μg/ml propidium iodide (Invitrogen®, Carlsbad, Calif.) of the corresponding pH. Final FACS data were acquired on a FACScan (Becton Dickinson, Franklin Lakes, N.J.).

[2] = target: T1, Neonatal Fc receptor (FcRn) on …; assay: flow cytometry on CHO-FcRnGPI cells, pH 6.4; remark: listed apart in the source
Description: as §1

human IL-12 [3] = target: T2, human IL-12 (human, UniProt P29459 23-219; P29460 23-328); assay: SPR (BIAcore)
T2 construct: Human is stated for the bioassay; also called rhIL-12
T2 sequence (looked up) 1: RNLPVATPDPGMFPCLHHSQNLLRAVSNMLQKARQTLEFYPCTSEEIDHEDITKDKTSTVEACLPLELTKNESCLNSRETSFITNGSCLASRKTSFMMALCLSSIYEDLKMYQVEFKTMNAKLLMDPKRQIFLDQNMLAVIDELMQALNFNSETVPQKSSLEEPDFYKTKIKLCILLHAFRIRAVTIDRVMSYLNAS
T2 sequence (looked up) 2: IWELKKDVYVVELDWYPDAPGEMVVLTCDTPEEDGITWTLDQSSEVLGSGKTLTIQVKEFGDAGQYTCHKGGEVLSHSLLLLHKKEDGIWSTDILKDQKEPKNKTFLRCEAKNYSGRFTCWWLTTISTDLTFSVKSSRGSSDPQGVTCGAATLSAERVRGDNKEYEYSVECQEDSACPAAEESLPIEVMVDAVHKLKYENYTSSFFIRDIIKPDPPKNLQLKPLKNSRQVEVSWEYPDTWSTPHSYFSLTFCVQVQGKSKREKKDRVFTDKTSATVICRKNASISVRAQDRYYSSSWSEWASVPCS
Description: (§2) The BIAcore® assay (BIAcore®, Inc, Piscataway, N.J.) determines the affinity of antibodies with kinetic measurements of on-rate and off-rate constants. Binding of antibodies to a target antigen (for example, a purified recombinant target antigen) is determined by surface plasmon resonance-based measurements with a BIAcore® 1000 or 3000 instrument (BIAcore® AB, Uppsala, Sweden) using running HBS-EP (10 mM HEPES [pH 7.4], 150 mM NaCl, 3 mM EDTA, and 0.005% surfactant P20) at 25° C. […] Unreacted moieties on the biosensor surface are blocked with ethanolamine. Modified carboxymethyl dextran surface in flowcell 2 and 4 is used as a reaction surface. Unmodified carboxymethyl dextran without goat anti-mouse IgG in flow cell 1 and 3 is used as the reference surface. For kinetic analysis, rate equations derived from the 1:1 Langmuir binding model are fitted simultaneously to association and dissociation phases of all eight injections (using global fit analysis) with the use of Biaevaluation 4.0.1 software. Purified antibodies are diluted in HEPES-buffered saline for capture across goat anti-mouse IgG specific reaction surfaces. […] The association and dissociation rate constants, kₒₙ (M⁻¹s⁻¹) and koff (s⁻¹), are determined under a continuous flow rate of 25 μl/minute. Rate constants are derived by making kinetic binding measurements at different antigen concentrations ranging from 10-200 nM. The equilibrium dissociation constant (M) of the reaction between antibodies and the target antigen is then calculated from the kinetic rate constants by the following formula: KD=koff/kₒₙ. Binding is recorded as a function of time and kinetic rate constants are calculated.

recombinant human IL-18 [4] = target: T3, recombinant human IL-18 (human, UniProt Q14116 37-193); assay: SPR (BIAcore)
T3 construct: Human is stated for the KG-1 bioassay; also called rhIL-18; rIL-18
Description: as §2

human IL-12 [5] = target: T2, human IL-12; assay: cell-based or functional assay
recombinant human IL-18 [6] = target: T3, recombinant human IL-18; assay: cell-based or functional assay
Recombinant Human IL-1β [7] = target: T4, Recombinant Human IL-1β (human, UniProt P01584 117-269); assay: SPR (BIAcore)
T4 construct: also called IL-1b
Description: as §2

Recombinant Human IL-1β [8] = target: T4, Recombinant Human IL-1β; assay: cell-based or functional assay
Recombinant Human IL-1β [9] = target: T4, Recombinant Human IL-1β; assay: SPR (BIAcore); *off-rate at the limit of dissociation after 1 hour
Description: The BIAcore® assay (BIAcore®, Inc, Piscataway, N.J.) determines the affinity of antibodies with kinetic measurements of on-rate and off-rate constants. Binding of antibodies to a target antigen (for example, a purified recombinant target antigen) is determined by surface plasmon resonance-based measurements with a BIAcore® 1000 or 3000 instrument (BIAcore® AB, Uppsala, Sweden) using running HBS-EP (10 mM HEPES [pH 7.4], 150 mM NaCl, 3 mM EDTA, and 0.005% surfactant P20) at 25° C. […] Unreacted moieties on the biosensor surface are blocked with ethanolamine. Modified carboxymethyl dextran surface in flowcell 2 and 4 is used as a reaction surface. Unmodified carboxymethyl dextran without goat anti-mouse IgG in flow cell 1 and 3 is used as the reference surface. […] The association and dissociation rate constants, kₒₙ (M⁻¹s⁻¹) and koff (s⁻¹), are determined under a continuous flow rate of 25 μl/minute. […] The equilibrium dissociation constant (M) of the reaction between antibodies and the target antigen is then calculated from the kinetic rate constants by the following formula: KD=koff/kₒₙ. Binding is recorded as a function of time and kinetic rate constants are calculated.

Chain of biotin-labeled c-Met (P08581 25-932 limits assumed): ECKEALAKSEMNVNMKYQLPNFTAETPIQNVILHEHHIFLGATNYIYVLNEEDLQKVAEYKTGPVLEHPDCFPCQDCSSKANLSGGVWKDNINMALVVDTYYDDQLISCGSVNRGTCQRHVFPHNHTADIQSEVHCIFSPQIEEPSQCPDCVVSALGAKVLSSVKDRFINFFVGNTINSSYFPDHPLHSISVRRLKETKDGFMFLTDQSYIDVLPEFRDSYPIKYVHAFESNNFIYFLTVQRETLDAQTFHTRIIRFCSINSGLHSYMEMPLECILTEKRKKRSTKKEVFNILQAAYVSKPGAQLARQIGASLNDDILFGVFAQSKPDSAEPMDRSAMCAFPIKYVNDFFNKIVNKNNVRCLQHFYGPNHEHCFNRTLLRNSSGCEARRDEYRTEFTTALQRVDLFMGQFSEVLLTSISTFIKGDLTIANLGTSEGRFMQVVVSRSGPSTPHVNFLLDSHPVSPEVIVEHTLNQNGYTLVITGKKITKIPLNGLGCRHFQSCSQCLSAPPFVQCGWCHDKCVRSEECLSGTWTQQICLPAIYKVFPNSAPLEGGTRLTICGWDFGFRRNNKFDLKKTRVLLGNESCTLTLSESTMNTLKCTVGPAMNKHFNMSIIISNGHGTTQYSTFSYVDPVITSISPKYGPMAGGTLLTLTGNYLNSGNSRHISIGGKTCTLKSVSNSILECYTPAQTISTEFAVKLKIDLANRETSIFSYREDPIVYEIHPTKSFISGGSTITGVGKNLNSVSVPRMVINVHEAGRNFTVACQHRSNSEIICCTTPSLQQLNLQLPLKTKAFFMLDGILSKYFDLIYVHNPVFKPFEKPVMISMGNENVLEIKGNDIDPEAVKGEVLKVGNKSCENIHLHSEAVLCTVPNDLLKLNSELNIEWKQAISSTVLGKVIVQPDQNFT

B2: cMet-Mut18-QL (antibody, human IgG1, kappa)
heavy: QVQLQQSGPELVRPGASVKMSCRASGYTFTSYWLHWVKQRPGQGLEWIGMIDPSNSDTRFNPNFKDKATLNVDRSSNTAYMLLSSLTSADSAVYYCATYGSYVSPLDYWGQGTSVTVSSASTKGPSVFPLAPSSKSTSGGTAALGCLVKDYFPEPVTVSWNSGALTSGVHTFPAVLQSSGLYSLSSVVTVPSSSLGTQTYICNVNHKPSNTKVDKKVEPKSCDKTHTSPPSPAPELLGGPSVFLFPPKPKDQLMISRTPEVTCVVVDVSHEDPEVKFNWYVDGVEVHNAKTKPREEQYNSTYRVVSVLTVLHQDWLNGKEYKCKVSNKALPAPIEKTISKAKGQPREPQVYTLPPSREEMTKNQVSLTCLVKGFYPSDIAVEWESNGQPENNYKTTPPVLDSDGSFRLYSKLTVDKSRWQQGNVFSCSVLHEALHNHYTQKSLSLSPGK
light: DFMMSQSPSSLTVSVGEKVTVSCKSSQSLLYTSSQKNYLAWYQQKPGQSPKLLIYWASTRESGVPDRFTGSGSGTDFTLTITSVKADDLAVYYCQQYYAYPWTFGGGTKLELKRTVAAPSVFIFPPSDEQLKSGTASVVCLLNNFYPREAKVQWKVDNALQSGNSQESVTEQDSKDSTYSLSSTLTLSKADYEKHKVYACEVTHQGLSSPVTKSFNRGEC
notes: also called cMetHC-Mut18-QL
EC50 [1]: 0.035 µM

B6: cMet-Mut19 (antibody, human IgG1, kappa)
heavy: B2 heavy with Q252T, R407F, Y409R, L430M
light: B2 light
notes: Half-Ig; CH3 Y407R; 94.4 % half-Ig by SEC; also called cMetHC-Mut19
EC50 [2]: 2.98 µM

B8: cMet-Mut20 (antibody, human IgG1, kappa)
heavy: B2 heavy with Q252T, R407F, K411D, L430M
light: B2 light
notes: Half-Ig; CH3 K409D; 91.7 % half-Ig by SEC; also called cMetHC-Mut20
EC50 [2]: 1.23 µM

B9: cMet-Mut18 (antibody, human IgG1, kappa)
heavy: B2 heavy with Q252T, L430M
light: B2 light
notes: Half-Ig; CH3 F405R; 94.5 % half-Ig by SEC; also called cMetHC-Mut18; cMet half Ig mut18
EC50 [2]: 1980 µM

B10: ½ IL12/IL18/PGE2 TVD (other)
heavy: EVTLRESGPALVKPTQTLTLTCTFSGFSLSKSVMGVSWIRQPPGKALEWLAHIYWDDDKYYNPSLKSRLTISKDTSKNQVVLTMTNMDPVDTATYYCARRGIRSAMDYWGQGTTVTVSSASTKGPEVQLVQSGTEVKKPGESLKISCKGSGYTVTSYWIGWVRQMPGKGLEWMGFIYPGDSETRYSPTFQGQVTISADKSFNTAFLQWSSLKASDTAMYYCARVGSGWYPYTFDIWGQGTMVTVSSASTKGPEVQLVQSGAEVKKPGASVKVSCKASGYTFTKYWLGWVRQAPGQGLEWMGDIYPGYDYTHYNEKFKDRVTLTTDTSTSTAYMELRSLRSDDTAVYYCARSDGSSTYWGQGTLVTVSSASTKGPSVFPLAPSSKSTSGGTAALGCLVKDYFPEPVTVSWNSGALTSGVHTFPAVLQSSGLYSLSSVVTVPSSSLGTQTYICNVNHKPSNTKVDKKVEPKSCDKTHTSPPSPAPELLGGPSVFLFPPKPKDTLMISRTPEVTCVVVDVSHEDPEVKFNWYVDGVEVHNAKTKPREEQYNSTYRVVSVLTVLHQDWLNGKEYKCKVSNKALPAPIEKTISKAKGQPREPQVYTLPPSREEMTKNQVSLTCLVKGFYPSDIAVEWESNGQPENNYKTTPPVLDSDGSFRLYSKLTVDKSRWQQGNVFSCSVMHEALHNHYTQKSLSLSPGK
light: DIVMTQSPDSLAVSLGERATINCKASQSVSNDVAWYQQKPGQPPKLLIYYASNRYTGVPDRFSGSGSGTDFTLTISSLQAEDVAVYYCQQDYNSPWTFGGGTKVEIKRTVAAPEIVMTQSPATLSVSPGERATLSCRASESISSNLAWYQQKPGQAPRLFIYTASTRATDIPARFSGSGSGTEFTLTISSLQSEDFAVYYCQQYNNWPSITFGQGTRLEIKRTVAAPDVLMTQTPLSLPVTPGEPASISCTSSQNIVHSNGNTYLEWYLQKPGQSPQLLIYKVSNRFSGVPDRFSGSGSGTDFTLKISRVEAEDVGVYYCFQVSHVPYTFGGGTKVEIKRTVAAPSVFIFPPSDEQLKSGTASVVCLLNNFYPREAKVQWKVDNALQSGNSQESVTEQDSKDSTYSLSSTLTLSKADYEKHKVYACEVTHQGLSSPVTKSFNRGEC
notes: Half TVD with hCg1-Mut18 (F405R, C226S, C229S); 78 % by SEC; also called Half IL12/IL18/PGE2 TVD; IL12/IL18/PGE2 TVD half-Ig
Kd (human IL-12 [3]): 0.00013 µM | koff (human IL-12 [3]): 5.1e-05 s⁻¹ | kon (human IL-12 [3]): 400000 M⁻¹ s⁻¹ | Kd (recombinant human IL-18 [4]): 0.00044 µM | koff (recombinant human IL-18 [4]): 5.9e-05 s⁻¹ | kon (recombinant human IL-18 [4]): 130000 M⁻¹ s⁻¹ | Neutralization of IL-12 IC50 (nM); IFN-γ release from PHA blast cells (human IL-12 [5]): 12.5 nM | Neutralization of IL-18 IC50 (nM); IFN-γ release from KG-1 cells (recombinant human IL-18 [6]): 0.918 nM

B12: ½ IL1b DA2 Fc (Fc fusion)
chain: EVQLLESGGGLVQPGGSLRLSCAASGFTFAEESWMWVRQAPGKGLEWVSRIGQDGKNTYYREDVKGRFTISRDNSKNTLYLQMNSLRAEDTAVYYCAKYTGRIMGHHLFDYWGQGTLVTVSSEPKSSDKTHTSPPSPAPELLGGPSVFLFPPKPKDTLMISRTPEVTCVVVDVSHEDPEVKFNWYVDGVEVHNAKTKPREEQYNSTYRVVSVLTVLHQDWLNGKEYKCKVSNKALPAPIEKTISKAKGQPREPQVYTLPPSREEMTKNQVSLTCLVKGFYPSDIAVEWESNGQPENNYKTTPPVLDSDGSFRLYSKLTVDKSRWQQGNVFSCSVMHEALHNHYTQKSLSLSPGK
notes: Half domain antibody-Fc with Fc-Mut18; 83 % half-Ig by SEC; also called half IL1b DA2 Fc
Kd (Recombinant Human IL-1β [7]): 0.028 nM | kon (Recombinant Human IL-1β [7]): 170000 M⁻¹ s⁻¹ | koff (Recombinant Human IL-1β [9]): 4.9e-06 s⁻¹

Next, values leading:

EC50 (biotin-labeled c-Met): 0.00046 µM
B1: cMet-Mut6 half-Ig binding protein (antibody)
heavy: B2 heavy with C222S, S231C, Q252T, P398A, Y409R, K411D, L430M
light: B2 light
notes: Half-Ig; CH3 P395A, F405R, Y407R, K409D; 100 % half-Ig by SEC; also called cMetHC-Mut6

EC50 [2]: 4700 µM
B3: cMet-Mut11 (antibody, human IgG1, kappa)
heavy: B2 heavy with Q252T, P398A, L430M
light: B2 light
notes: Half-Ig; CH3 P395A, F405R; 94.8 % half-Ig by SEC; also called cMetHC-Mut11; cMet half Ig mut11

EC50 [1]: 0.015 µM
B4: cMet-Mut18-GTv2 (antibody, human IgG1, kappa)
heavy: B2 heavy with Q252T, T309A, E382A, L430M, N436A
light: B2 light
notes: also called cMetHC-Mut18-GTv2

EC50 [2]: 0.63 µM
B5: cMet-Mut13 (antibody, human IgG1, kappa)
heavy: B2 heavy with Q252T, P398A, R407F, K411D, L430M
light: B2 light
notes: Half-Ig; CH3 P395A, K409D; 94.9 % half-Ig by SEC; also called cMetHC-Mut13

EC50 [2]: 1.45 µM
B7: cMet-Mut14 (antibody, human IgG1, kappa)
heavy: B2 heavy with Q252T, Y409R, L430M
light: B2 light
notes: Half-Ig; CH3 F405R, Y407R; 96.1 % half-Ig by SEC; also called cMetHC-Mut14; cMet half Ig mut14

Kd (Recombinant Human IL-1β [7]): 0.053 nM | kon (Recombinant Human IL-1β [7]): 120000 M⁻¹ s⁻¹ | IL-1β Neutralization Assay EC50 nM; IL-8 release from MRC5 cells (Recombinant Human IL-1β [8]): 0.155 nM | koff (Recombinant Human IL-1β [9]): 6.4e-06 s⁻¹
B11: ½ IL1b DA1 Fc (Fc fusion)
chain: B12 chain with E31D, S33G, W34M, G52T, Q53Y, D54S, R61A, E62D, D63S, M104L
notes: Half domain antibody-Fc with Fc-Mut18; 82 % half-Ig by SEC; also called half IL1b DA1 Fc
